Laboratory results from paper doi:10.1101/436014, “Human telomere repeat binding factor TRF1 replaces TRF2 bound to shelterin core hub TIN2 when TPP1 is absent” (bioRxiv, 2018).
Values belong to the binder of their own block, whether it stands above or below them.

Columns and labels:
[1] = molecular target: T1, Telomere Repeat-binding Factor 1 (TRF1), full-length human (human, UniProt P54274 1-439, Alexa Fluor 594 or Alexa Fluor 488 label where used labeled (site not stated); unlabeled where used as competitor and in MST); test: MST; Alexa Fluor 488 labeled TIN2 incubated with different concentrations of TRF1 or TRF2; 50 mM sodium phosphate pH 7.0, 50 mM NaCl; 12 °C; apparent KD; conditions: both partners purified
T1 construct: TRF1, human, full-length; Removal of the His tag is not mentioned
T1 sequence (looked up): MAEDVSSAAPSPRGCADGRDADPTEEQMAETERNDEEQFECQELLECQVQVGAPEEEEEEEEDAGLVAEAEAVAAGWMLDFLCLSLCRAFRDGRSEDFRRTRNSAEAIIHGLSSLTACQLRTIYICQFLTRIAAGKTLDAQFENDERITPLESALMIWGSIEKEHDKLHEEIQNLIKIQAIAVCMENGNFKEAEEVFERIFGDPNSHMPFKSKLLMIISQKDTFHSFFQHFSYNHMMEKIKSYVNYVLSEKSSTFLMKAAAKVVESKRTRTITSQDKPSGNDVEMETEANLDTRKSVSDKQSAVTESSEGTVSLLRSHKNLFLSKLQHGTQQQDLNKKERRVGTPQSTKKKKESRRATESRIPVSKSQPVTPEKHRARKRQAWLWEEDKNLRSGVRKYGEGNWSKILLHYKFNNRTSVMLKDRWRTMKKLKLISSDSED

[2] = molecular target: T2, Telomere Repeat-binding Factor 2 (TRF2), full-length human (human, UniProt Q15554 1-542, Alexa Fluor 594 or Alexa Fluor 488 label where used labeled (site not stated); unlabeled where used as competitor and in MST); test: as above; conditions: both partners purified
T2 construct: TRF2, human, full-length; Removal of the His tag is not mentioned
T2 sequence (looked up): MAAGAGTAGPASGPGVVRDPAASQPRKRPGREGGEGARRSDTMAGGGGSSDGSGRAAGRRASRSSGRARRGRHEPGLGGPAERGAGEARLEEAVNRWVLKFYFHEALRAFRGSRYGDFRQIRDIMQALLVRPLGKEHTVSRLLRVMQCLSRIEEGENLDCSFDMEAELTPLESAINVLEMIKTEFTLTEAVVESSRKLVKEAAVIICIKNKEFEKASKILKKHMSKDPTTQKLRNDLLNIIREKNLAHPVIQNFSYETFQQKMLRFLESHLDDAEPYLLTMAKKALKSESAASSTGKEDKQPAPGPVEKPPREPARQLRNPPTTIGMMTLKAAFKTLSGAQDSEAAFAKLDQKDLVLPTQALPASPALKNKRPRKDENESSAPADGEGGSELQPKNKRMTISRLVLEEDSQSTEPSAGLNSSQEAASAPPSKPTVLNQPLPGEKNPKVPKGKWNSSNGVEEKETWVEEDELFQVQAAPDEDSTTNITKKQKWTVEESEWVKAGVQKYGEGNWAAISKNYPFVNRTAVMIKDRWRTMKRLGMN

TRF1;TIN2 = TRF1;TIN2 (human;human, UniProt P54274;Q9BSI4 1-439;1-451, |); test: fluorescence anisotropy; TRF1 5 uM:TIN2 2.5 uM (2:1) stock titrated into 7.5 nM DNA; KD only in figure; 50 mM sodium phosphate pH 7.0, 50 mM NaCl, 25 C; 7.5 nM Alexa Fluor 488-labeled DNA; 2 min incubation per titration step; conditions: protein: recombinant;recombinant; chain copies: 2;1; (described only as annealed with its complementary strand)

- Kd [1]: 240 nM
- Kd [2]: 360 nM
B1: TRF1-Interacting Nuclear factor 2 (TIN2), full-length human (natural protein)
chain: ATPLVAGPAALRFAAAASWQVVRGRCVEHFPRVLEFLRSLRAVAPGLVRYRHHERLCMGLKAKVVVELILQGRPWAQVLKALNHHFPESGPIVRDPKATKQDLRKILEAQETFYQQVKQLSEAPVDLASKLQELEQEYGEPFLAAMEKLLFEYLCQLEKALPTPQAQQLQDVLSWMQPGVSITSSLAWRQYGVDMGWLLPECSVTDSVNLAEPMEQNPPQQQRLALHNPLPKAKPGTHLPQGPSSRTHPEPLAGRHFNLAPLGRRRVQSQWASTRGGHKERPTVMLFPFRNLGSPTQVISKPESKEEHAIYTADLAMGTRAASTGKSKSPCQTLGGRALKENPVDLPATEQKENCLDCYMDPLRLSLLPPRARKPVCPPSLCSSVITIGDLVLDSDEEENGQGEGKESLENYQKTKFDTLIPTLCEYLPPSGHGAIPVSSCDCRDSSRPL
modifications: Alexa Fluor 488 label where used labeled (site not stated); unlabeled in the TRF1/TRF2 cross-correlation experiment and in SEC

B2: R5 telomeric duplex (five repeats) (dsDNA)
DNA 1: GTTAGGGTTAGGGTTAGGGTTAGGGTTAGGGTTAG
DNA 2: CTAACCCTAACCCTAACCCTAACCCTAACCCTAAC
- binding result (TRF1;TIN2): binds
